Data reported in doi:10.1101/2023.11.01.565197 (bioRxiv, 2023).

Target: the molecule itself
Assay: cryo-EM structure

B1: rabbit Slo1 (KCNMA1) (natural protein)
chain: not shown
stoichiometry N: 4
